First the molecules themselves.
B1: wild-type polypeptide FLLGNLSFV (SEQ ID NO:5) (peptide)
peptide: FLLGNLSFV
notes: Made by solid phase peptide synthesis, HPLC purity >90%
B2: mutant polypeptide FLLGNLFFV (SEQ ID NO:1) (peptide)
peptide: FLLGNLFFV
notes: Made by solid phase peptide synthesis, HPLC purity >90%; also called OR4K5 S67F mutant polypeptide
B3: mutant polypeptide's variant FLLGNLFFL (SEQ ID NO:2) (peptide)
peptide: FLLGNLFFL
notes: as for B1
B4: mutant polypeptide's variant FMLGNLFFL (SEQ ID NO:4) (peptide)
peptide: FMLGNLFFL
notes: as for B1
B5: mutant polypeptide's variant FMLGNLFFV (SEQ ID NO:3) (peptide)
peptide: FMLGNLFFV
notes: as for B1

This assay has as its target T1, HLA-A0201 on the surface of T2 cells (human).
T1 construct: surface HLA-A*02:01 is detected with an anti-HLA-A*02:01 FITC monoclonal antibody after loading with peptide
Kind of assay: T2 cell peptide loading assay, 100 uM peptide, anti-HLA-A*02:01 FITC, flow cytometry. In general terms: A flow cytometer gives signals particle by particle.
Procedure: After centrifugation at 200 g for 5 minutes for cell collection, the collected cells were washed with phosphate buffer saline (PBS) buffer twice, before incubated with anti-HLA-A*02:01 FITC monoclonal antibody at 4° C. for 30 minutes. The mean fluorescence intensity of cells was then detected and analyzed by the flow cytometry (BD FACSJazz™) and its software.
For the molecule B1, the “FI (fluorescence index)” value is 2.27 and the Mean fluorescence intensity was found to be 724.

B2: the “FI (fluorescence index)” value was found to be 2.22 and the Mean fluorescence intensity amounted to 713.

B3: the “FI (fluorescence index)” value stood at 2.17 and the Mean fluorescence intensity stood at 702.

For B4, the “FI (fluorescence index)” value was determined as 2.1 and the Mean fluorescence intensity came out at 686.

Consider B5, for which the “FI (fluorescence index)” value came to 2.13 and the Mean fluorescence intensity worked out at 694.

Values taken from patent publication US20190263863A1 (GENOIMMUNE THERAPEUTICS, published 2019).
